Molecular target: gastrin-releasing peptide receptor (GRPR) with a C-terminal NLuc tag (human) (UniProt P30550)
Test: FRET or BRET

UniProt P30550, sequence (P30550 whole entry): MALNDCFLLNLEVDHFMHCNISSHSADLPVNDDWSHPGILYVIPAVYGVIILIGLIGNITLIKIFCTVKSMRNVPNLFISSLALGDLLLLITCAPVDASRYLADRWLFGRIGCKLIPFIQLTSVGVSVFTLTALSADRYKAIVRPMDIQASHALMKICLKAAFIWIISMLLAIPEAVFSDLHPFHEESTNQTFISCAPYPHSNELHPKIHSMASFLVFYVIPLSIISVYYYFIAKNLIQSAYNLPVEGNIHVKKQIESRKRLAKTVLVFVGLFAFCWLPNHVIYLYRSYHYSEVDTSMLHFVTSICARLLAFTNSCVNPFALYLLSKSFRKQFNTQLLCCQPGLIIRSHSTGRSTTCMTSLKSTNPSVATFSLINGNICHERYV

**Q.** venus-mGq (engineered mini Gαq probe) was tested. Which efficacy of miniGq recruitment with AG-2-BBN-1 (% of AMBA) did it give?
**A.** Its efficacy of miniGq recruitment with AG-2-BBN-1 (% of AMBA) is 57%.

From publication PMC8640787
